Measured values as given in patent publication US20190177415A1 (PIERRE FABRE MEDICAMENT, published 2019).

How the values were obtained:
[1] = target: T1, C10orf54 (antigen of the KD values in Table 42) (human, UniProt Q9H7M9 33-311, limits assumed); experiment: method and antigen form not stated
T1 sequence: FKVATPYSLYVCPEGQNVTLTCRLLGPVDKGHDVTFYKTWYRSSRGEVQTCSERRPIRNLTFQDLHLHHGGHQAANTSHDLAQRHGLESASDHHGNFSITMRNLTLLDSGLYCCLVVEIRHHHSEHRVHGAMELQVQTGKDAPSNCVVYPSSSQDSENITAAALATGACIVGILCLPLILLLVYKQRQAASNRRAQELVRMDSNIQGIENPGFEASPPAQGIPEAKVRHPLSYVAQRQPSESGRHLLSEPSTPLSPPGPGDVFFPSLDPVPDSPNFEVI

[2] = target: T2, full length cynomolgus monkey C10orf54 (construct CC4) (cynomolgus monkey, UniProt Q9H7M9 33-311 (human entry)); experiment: flow cytometry, transfected 293t cells, 2 ug/ml; stain = MFI >=20-fold over isotype control
T2 construct: also called C10orf54 Construct 4
T2 chain: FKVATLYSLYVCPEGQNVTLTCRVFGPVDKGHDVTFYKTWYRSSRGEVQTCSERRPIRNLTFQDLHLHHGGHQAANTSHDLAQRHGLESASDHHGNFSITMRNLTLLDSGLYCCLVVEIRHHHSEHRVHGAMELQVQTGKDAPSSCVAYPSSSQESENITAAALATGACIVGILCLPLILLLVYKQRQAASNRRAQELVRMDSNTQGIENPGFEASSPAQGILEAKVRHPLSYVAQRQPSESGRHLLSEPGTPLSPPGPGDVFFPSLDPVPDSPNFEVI
Experimental: (§1) To investigate epitope diversity of the anti-human C10orf54 antibodies, 293t cells were transfected with 1 of 10 different C10orf54 expression constructs that co-express a fluorescent marker. Two days after transfection, cells were stripped from the tissue culture plate, stained with 2 μg/ml anti-human C10orf54 antibody , washed, stained with anti-mouse IgG-Fc Alexa Fluor 647 polyclonal antibody, washed, and stained with the viability dye 4′,6-Diamidino-2-Phenylindole, Dihydrochloride. Upon acquisition of 10,000 live events on a flow cytometer, live cells marked with the fluorescent marker were analyzed for the degree of staining by the anti-human C10orf54 antibody. When the median fluorescence intensity fold-change relative to an isotype control antibody was at least 20-fold, the antibody was considered to stain the C10orf54 expression construct in question.

[3] = target: T3, chimeric C10orf54: human IgV with mouse STALK (construct CC5) (human/mouse chimera); experiment: as above
T3 construct: also called C10orf54 Construct 5; hsIGVmmSTALK
T3 chain: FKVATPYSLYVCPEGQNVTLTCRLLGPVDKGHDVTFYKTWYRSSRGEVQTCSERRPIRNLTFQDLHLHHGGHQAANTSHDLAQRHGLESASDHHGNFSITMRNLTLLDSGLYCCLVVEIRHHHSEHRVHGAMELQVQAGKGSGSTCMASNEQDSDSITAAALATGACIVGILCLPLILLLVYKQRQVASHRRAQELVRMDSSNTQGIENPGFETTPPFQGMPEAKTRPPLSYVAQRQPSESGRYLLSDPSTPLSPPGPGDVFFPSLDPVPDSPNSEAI
Experimental: as §1

[4] = target: T4, chimeric C10orf54: first half of IgV mouse and remainder (including loop) human (construct CC8) (human/mouse chimera, UniProt Q9H7M9 33-311); experiment: as above
T4 construct: also called C10orf54 Construct 8; mmabChsC10
T4 chain: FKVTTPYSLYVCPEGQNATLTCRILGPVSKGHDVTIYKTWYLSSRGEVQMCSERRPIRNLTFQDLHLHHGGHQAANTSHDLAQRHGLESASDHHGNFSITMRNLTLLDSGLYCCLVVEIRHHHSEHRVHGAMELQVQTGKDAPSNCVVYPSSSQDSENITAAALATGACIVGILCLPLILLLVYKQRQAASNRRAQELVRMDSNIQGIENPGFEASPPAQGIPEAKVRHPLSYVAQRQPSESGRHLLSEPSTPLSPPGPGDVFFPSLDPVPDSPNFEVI
Experimental: as §1

[5] = target: T5, chimeric C10orf54: mouse with human loop (construct CC10) (human/mouse chimera, UniProt Q9D659 33-308 (mouse entry)); experiment: as above
T5 construct: also called C10orf54 Construct 10; mmC10hsLOOP
T5 chain: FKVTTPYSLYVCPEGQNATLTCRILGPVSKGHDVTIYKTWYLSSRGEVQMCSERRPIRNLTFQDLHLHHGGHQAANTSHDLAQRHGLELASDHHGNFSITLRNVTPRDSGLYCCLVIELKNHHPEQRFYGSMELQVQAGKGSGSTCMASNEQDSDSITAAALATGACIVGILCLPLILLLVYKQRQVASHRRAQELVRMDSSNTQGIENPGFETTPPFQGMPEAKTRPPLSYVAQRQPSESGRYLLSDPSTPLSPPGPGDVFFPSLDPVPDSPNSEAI
Experimental: as §1

B1: murine monoclonal antibody 53A (antibody, V domains shown)
VH: EVQLQQSGPELVKPGASVKMSCKASGYTFTSYFMHWVKQKPGQGLEWIGYIYPYNDGTKYNEKFKGKATLTSDKSSSTAYMELSSLTSEDSAVYYCARFDYDTLRYWGQGTTLTVSS
VL: DVVLTQTPLSLPVNIGDQASISCKSTKSLLNSDGFTYLDWYLQKPGQSPQLLIYLVSNRFSGVPDRFSGSGSGTDFTLKISRVEAEDLGVYYCFQSNYFPWTFGGGTKLEIK
notes: Mouse hybridoma antibody
With B1 as the binder, how does the Kd [1] read?
The Kd was 0.321 nM.

Does B1 bind [2]?
Result: binds

Does B1 bind [3]?
Result: binds

Does B1 bind [4]?
Result: binds

B2: murine monoclonal antibody 259A (antibody, V domains shown)
VH: EVQLQQSGPELVKPGASVKMSCKASGYTFTSYFMHWVKQKPGQGLEWIGYIYPYNDGTKYNEKFKGKATLTSDKSSSTAYMDLSSLTSEDSAVYYCARFDYDTLRYWGQGTTLTVSS
VL: DVVLTQTPLSLPVNIGDQASISCKSTKSLLNSDGFTYLDWYLQKPGQSPQLLIYLISNRFSGVPDRFSGSGSGTDFTLKISRVEAEDLGVYYCFQSNYFPWTFGGGTKLEIK
notes: Mouse hybridoma antibody
What does the source list for B2?
Kd [1]: 0.266 nM; binding result [2]: binds; binding result [3]: binds; binding result [4]: binds

B3: murine monoclonal antibody 5B (antibody, V domains shown)
VH: QVQLQQSGAELVRPGVSVKISCKGSGYTFTDYGMHWVKQSHAKSLEWIGIIDTYYGDATYNQKFKGKATMTVDKSSSTAYMELARLTSEDSAIYYCARRAGNAMDYWGQGTSVTVSS
VL: NIVMTQTPKFLLVSAGDRVTITCKASQSVSNDVAWYQQKPGQSPKLLIYYASNRYTGVPDRFTGSGYGTDFTFTISTVQAEDLAVYFCQQDYSSPRTFGGGTKLEIK
notes: Mouse hybridoma antibody
For B3, which Kd [1] is on record?
Its Kd is 0.974 nM.

Does B3 bind [2]?
Result: binds

Does B3 bind [3]?
Result: binds

Does B3 bind [4]?
Result: binds

Does B3 bind [5]?
Result: binds

B4: murine monoclonal antibody 46A (antibody, V domains shown)
VH: QVQLQQAGGELVRPGVSVKISCKGSGYTFTDYGMHWVKQSHAKSLEWIGIINTYYGDATYNQKFKGKATMTVDKSSSTAYMELARLTSEDSAIYYCARRAGTAMDYWGQGTSVTVSS
VL: SIVMTQTPKFLLVSAGDRVTITCKASQSVSNDVAWYQQKPGQSPKLLIYYASNRYTGVPDRFTGSGYGTDFTFTISTVQAEDLAVYFCQQDYGSPRTFGGGTKLEIK
notes: Mouse hybridoma antibody
B4 was tested. Which Kd [1] did it give?
The Kd was 1.88 nM.

Does B4 bind [2]?
Result: binds

Does B4 bind [4]?
Result: binds

B5: murine monoclonal antibody 97A (antibody, V domains shown)
VH: QVQLQQSGAELVRPGVSVKISCKGSGYTFTDYGMHWVKQSHAKSLEWIGVIDTYYGDASNNQKFKGKATMTVDKSSSTAYMELARLTSEDSAIYYCARRAGNAMDYWGQGTSVTVSS
VL: SIVMTQTPKFLLVSAGDRVAITCKASQSVSNDVAWYQQKPGQSPKLLIYYASNRYTGVPDRFTGSGYGTDFTFTISTVQAEDLAVYFCQQDYGSPRTFGGGTKLEIK
notes: Mouse hybridoma antibody
For B5, which Kd [1] is on record?
Its Kd is 1.99 nM.

B6: murine monoclonal antibody 128A (antibody, V domains shown)
VH: QVQLQQSGAELVRPGVSVKISCKGSGYTFTDYGMHWVKQSHAKSLEWIGLIDTYYGDATYNHKFKGKATMTVDKSSRTAYMELARLTSEDSAIYYCARRAGNAMDYWGQGTSVTASS
VL: NIAMTQTPKFLLVSAGDRVTITCKASQSVSNDIAWYQQKPGQSPRLLIYYASNRYTGVPDRFTGSGYGTDFTFTISTVQAEDLAVYFCQQDYSSPRTFGGGTKLEIK
notes: Mouse hybridoma antibody
With B6 as the binder, how does the Kd [1] read?
The Kd was 0.635 nM.

Does B6 bind [2]?
Result: binds

Does B6 bind [3]?
Result: binds

Does B6 bind [4]?
Result: binds

Does B6 bind [5]?
Result: binds

B7: murine monoclonal antibody 146C (antibody, V domains shown)
VH: QVQLQQSGAELVRPGVSVKISCKGSGYTFTDYGMHWVKQSHAKSLEWIGLIDTYYGDATYNHKFKGKATMTVDKSSRTAYMELARLTSEDSAIYYCARRAGNAMDYWGQGTSVTASS
VL: NIAMTQTPKFLLVSAGDRVTITCKASQSVSNDIAWYQQKPGQSPRLLIYYASNRYTGVPDRFTGSGYGTDFTFTISTVQAEDLAVYFCQQDYSSPRTFGGGTKLEIK
notes: Mouse hybridoma antibody
Does B7 bind [2]?
Result: binds

Does B7 bind [3]?
Result: binds

Does B7 bind [4]?
Result: binds

Does B7 bind [5]?
Result: binds

B8: murine monoclonal antibody 208A (antibody, V domains shown)
VH: QVQLQQSGAELVRPGVSVKISCKGSGYTFTDYGMHWVKQSHAKSLEWIGVIDTYYGDAGYNQKFKGKATMTVDKSSSTAYMELARLTSEDSAIYYCARRAGNAMDYWGQGTSVTVSS
VL: SIVMTQTPKFLLVSAGDRVTITCKASQSVSNDVAWYQQKPGQSPKLLIYYASNRYTGVPDRFTGSGYGTDFTFTISTVQAEDLAVYFCQQDYSSPRTFGGGTKLEIK
notes: Mouse hybridoma antibody
For B8, which Kd [1] is on record?
Its Kd is 2.48 nM.

Does B8 bind [2]?
Result: binds

Does B8 bind [3]?
Result: binds

Does B8 bind [4]?
Result: binds

Does B8 bind [5]?
Result: binds

B9: murine monoclonal antibody 215A (antibody, V domains shown)
VH: EVQLQQSGPELVKPGASMKISCKASGFSFTGYTMNWVKQSHGKNLEWIGLISPYNGGTSYNQKFKGKATLTVDKSSSTAYMELLSLTSEDSAVYYCARRAYGYAMDYWGQGTSVTVSS
VL: QIVLTQSPAIMSASPGEKVTMTCSASSSVSYMFWYQQKPGSSPRLLIYDTSNLASGVPLRFSGSGSGTSYSLTISRMEAEDAATYYCQQWSSYPFTFGSGTKLEIK
notes: Mouse hybridoma antibody
With B9 as the binder, how does the Kd [1] read?
Its Kd is 1.52 nM.

Does B9 bind [2]?
Result: binds

Does B9 bind [3]?
Result: binds

Does B9 bind [4]?
Result: binds

B10: murine monoclonal antibody 39A (antibody, V domains shown)
VH: QVQLQQSGAELMKPGASVKISCKATGYTFSSNWIEWVKQRPGHGLEWIGEILPGSGSTSYNEKFKGKATFTADTSSNTAYMQLSSLTSEDSAVYYCARWLLYYYAMDYWGQGTSVTVSS
VL: DVLMTQTPLSLPVSLGDPASISCRSSQSIVHNNGNTYLEWYLQKPGQSPKLLIYKVSNRFSGVPDRFSGSGSGTDFTLKISRVEAEDLGVYYCFQGSHVPYTFGGGTKLEIK
notes: Mouse hybridoma antibody
Which Kd [1] does the source give for B10 here?
Its Kd is 5.79 nM.

Does B10 bind [2]?
Result: binds

Does B10 bind [3]?
Result: binds

Does B10 bind [4]?
Result: binds

B11: murine monoclonal antibody 124A (antibody, V domains shown)
VH: QVQLQQSGAELMKPGASVKISCKATGYTFSSNWIEWVKQRPGHGLEWMGEILPGSGSTSYNEKFKGKATFTADTSSNTAYMQLSSLTSEDSAVYYCARWLLYYYAMDFWGQGTSVTVSS
VL: DVLMTQTPLSLPVSLGDQASISCRSSQSIVHNNGNTYLEWYLQKPGQSPKLLIYKVSNRFSGVPDRFSGSGSGTDFTLKISRVEAEDLGVYYCFQGSHVPYTFGGGTKLEIK
notes: Mouse hybridoma antibody
Which Kd [1] does the source give for B11 here?
Its Kd is 3.61 nM.

Does B11 bind [2]?
Result: binds

Does B11 bind [3]?
Result: binds

Does B11 bind [4]?
Result: binds

B12: murine monoclonal antibody 76E1 (antibody, V domains shown)
VH: EVQLLQSGPELEKPGASVKISCKASGYSFTGYNMNWVKQSNGKSLEWIGNIDPYYDYTSYNLKFKDKATLTVDKSSSTAYMQLKSLTSEDSAVYYCATSTMITPFDYWGQGTTLTVSS
VL: DVLMTQTPLSLPVSLGDQASISCRSSQSIVHSNGNTYLEWYLQKPGQSPKLLIYKVSNRFSGVPDRFSGSGSGTDFTLKINRVEAEDLGVYYCFQGSHVPWTFGGGTKLEIK
notes: Mouse hybridoma antibody
Which results are given for B12?
Kd [1]: 10.1 nM; binding result [2]: binds; binding result [3]: binds; binding result [4]: binds
